# Results as given in patent US20100254982A1 (VIVENTIA BIOTECHNOLOGIES, published 2010).
# T1: Glucose transporter 8 (GLUT8), cancer-associated variant expressed on the surface of cancer cells (VB1-050 … (human, UniProt Q9NY64 1-477))
# T1 construct: whole, on cells; Endogenous antigen of human tumor cell lines, identified by immunoprecipitation with VB1-050 and mass spectrometry from HepG2 and MCF-7 membranes; Only L12A and L13A are printed with old and new residues; In the immunoprecipitations the membrane preparations were deglycosylated with N-Glycanase; also called VB1-050Ag; VB1-050 Ag
# T1 sequence (looked up): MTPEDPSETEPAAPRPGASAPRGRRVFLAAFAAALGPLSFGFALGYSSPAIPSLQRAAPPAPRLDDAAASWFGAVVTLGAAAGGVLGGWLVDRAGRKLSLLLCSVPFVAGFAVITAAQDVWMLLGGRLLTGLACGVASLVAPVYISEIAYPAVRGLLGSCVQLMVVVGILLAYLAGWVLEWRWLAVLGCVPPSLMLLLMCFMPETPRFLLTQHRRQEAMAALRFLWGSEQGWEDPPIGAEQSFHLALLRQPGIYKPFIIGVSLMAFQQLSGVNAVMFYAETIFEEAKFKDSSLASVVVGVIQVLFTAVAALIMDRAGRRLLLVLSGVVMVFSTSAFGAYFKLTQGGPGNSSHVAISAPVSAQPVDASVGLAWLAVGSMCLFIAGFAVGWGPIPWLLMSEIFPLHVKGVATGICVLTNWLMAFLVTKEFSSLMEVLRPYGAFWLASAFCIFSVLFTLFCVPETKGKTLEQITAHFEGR
# B1: VB6-050 (soluble Fab-de-bouganin fusion protein derived from VB1-050) (Fab, V domains shown)
# VH: EVQLLESGGDLVQPGGSLRLSCAASGFTFSNYAMSWVRQAPGKGLEWVSAITPSGGSTNYADSVKGRFTISRDNSQNTLYLQMNSLRVEDTAVYYCGRVPYRSTWYPLYWGQGTLVTVSS
# VL: DIQMTQSPSSLSASVGDRVTITCRASQDISNYLAWFQRKPGKAPKSLIYAASSLHSKVPTQFSGSGSGTDFTLTISSLQPEDFATYYCLQYSTYPITFGGGTKVEIK
# B2: VB1-050 monoclonal antibody (antibody, V domains shown)
# VH: B1 VH
# VL: DIQMTQSPSSLSASVGDRVTITCRASQDISNYLAWFQRKPGKAPKSLIYAASSLHSKVPTQFSGSGSGTDFTLTISSLQPEDFATYYCLQYSTYPITFGGGTKVEIKR
# notes: also called VB1-050 IgG; parental IgG
# What was measured:
# [1] = target: Glucose transporter 8 (GLUT8), cancer-associated variant expressed on the surface of cancer cells (VB1-050 antigen) (human) (UniProt Q9NY64); experiment: cell-based or functional assay
# [2] = target: Glucose transporter 8 (GLUT8), cancer-associated variant expressed on the surface of cancer cells (VB1-050 antigen) (human) (UniProt Q9NY64); experiment: flow cytometry saturation curve on antigen-positive cells
# [3] = target: T1, Glucose transporter 8 (GLUT8), …; experiment: flow cytometry, normal lung cell line NHLF
# [4] = target: T1, Glucose transporter 8 (GLUT8), …; experiment: flow cytometry, normal kidney cell line HRE
# [5] = target: T1, Glucose transporter 8 (GLUT8), …; experiment: flow cytometry, normal breast cell line HMEC
# [6] = target: T1, Glucose transporter 8 (GLUT8), …; experiment: flow cytometry, normal prostate cell line PrEC
# [7] = target: T1, Glucose transporter 8 (GLUT8), …; experiment: flow cytometry, normal endothelial cell line HUVEC
# [8] = target: T1, Glucose transporter 8 (GLUT8), …; experiment: flow cytometry titration on A-375 cells, Lineweaver-Burk method
# [9] = target: T1, Glucose transporter 8 (GLUT8), …; experiment: flow cytometry, bladder tumor cell lines UM-UC-3, T24 (mean of 2)
# [10] = target: T1, Glucose transporter 8 (GLUT8), …; experiment: flow cytometry, liver tumor cell lines SK-HEP-1, Hep-G2 (mean of 2)
# [11] = target: T1, Glucose transporter 8 (GLUT8), …; experiment: flow cytometry, rectum tumor cell lines Sw837, NCI-H630 (mean of 2)
# [12] = target: T1, Glucose transporter 8 (GLUT8), …; experiment: flow cytometry, cervix tumor cell lines HeLa, C-41, C-33A (mean of 3)
# [13] = target: T1, Glucose transporter 8 (GLUT8), …; experiment: flow cytometry, colon tumor cell lines HT-29, SW480, WiDr (mean of 3)
# [14] = target: T1, Glucose transporter 8 (GLUT8), …; experiment: flow cytometry, ovarian tumor cell lines SK-OV-3, OVCar-3 (mean of 2)
# [15] = target: T1, Glucose transporter 8 (GLUT8), …; experiment: flow cytometry, kidney tumor cell lines Caki-1, A498, ACHN (mean of 3)
# [16] = target: T1, Glucose transporter 8 (GLUT8), …; experiment: flow cytometry, head & neck tumor cell lines SCC-15, SCC-25 (mean of 2)
# [17] = target: T1, Glucose transporter 8 (GLUT8), …; experiment: flow cytometry, endometrium tumor cell lines RL-95-2, HEC-1-A (mean of 2)
# [18] = target: T1, Glucose transporter 8 (GLUT8), …; experiment: flow cytometry, prostate tumor cell lines DU-145, PC-3, LNCaP (mean of 3)
# [19] = target: T1, Glucose transporter 8 (GLUT8), …; experiment: flow cytometry, lung tumor cell lines A-549, NCI-H460, NCI-H69 (mean of 3)
# [20] = target: T1, Glucose transporter 8 (GLUT8), …; experiment: flow cytometry, melanoma cell lines A-375, SK-MEL-5, SK-MEL-28 (mean of 3)
# [21] = target: T1, Glucose transporter 8 (GLUT8), …; experiment: flow cytometry, stomach tumor cell lines AGS, NCI-N-87, KATO III (mean of 3)
# [22] = target: T1, Glucose transporter 8 (GLUT8), …; experiment: flow cytometry, pancreas tumor cell lines PANC-1, BxPC-3, MIA PaCa-2 (mean of 3)
# [23] = target: T1, Glucose transporter 8 (GLUT8), …; experiment: flow cytometry, breast tumor cell lines MCF-7, MDA-MB-231, MDA-MB-435S (mean of 3)
# [24] = target: T1, Glucose transporter 8 (GLUT8), …; experiment: flow cytometry on A-375 cells, cells kept on ice for 120 minutes; above negative control human IgG (4B5)
# [25] = target: T1, Glucose transporter 8 (GLUT8), …; experiment: flow cytometry on A-375 cells, surface-bound antibody left after 60 min at 37 °C (internalization experiment)
# [26] = target: T1, Glucose transporter 8 (GLUT8), …; experiment: flow cytometry on A-375 cells, surface-bound antibody left after 120 min at 37 °C (internalization experiment)
# [27] = target: T1, Glucose transporter 8 (GLUT8), …; experiment: flow cytometry competition on antigen-positive cells; competitor VB6-050 fixed at 250 µg/mL, detected with anti-bouganin antibody
binder,measurement,setting,value
B1,"IC50 (MTS cytotoxicity assay, 5 days, antigen-positive cells MB-435S)",[1],400 nM
same,saturation point,[2],250 µg/mL
B2,MF (mean fold increase in median fluorescence over control antibody),[3],8.7 fold
same,MF (mean fold increase in median fluorescence over control antibody),[4],12.5 fold
same,MF (mean fold increase in median fluorescence over control antibody),[5],3.1 fold
same,MF (mean fold increase in median fluorescence over control antibody),[6],2.1 fold
same,MF (mean fold increase in median fluorescence over control antibody),[7],5 fold
same,Kd,[8],49 nM
same,MF (mean fold increase in median fluorescence over control antibody),[9],9.8 fold
same,MF (mean fold increase in median fluorescence over control antibody),[10],14.6 fold
same,MF (mean fold increase in median fluorescence over control antibody),[11],15.2 fold
same,MF (mean fold increase in median fluorescence over control antibody),[12],11.8 fold
same,MF (mean fold increase in median fluorescence over control antibody),[13],13.3 fold
same,MF (mean fold increase in median fluorescence over control antibody),[14],21.7 fold
same,MF (mean fold increase in median fluorescence over control antibody),[15],18.4 fold
same,MF (mean fold increase in median fluorescence over control antibody),[16],11.4 fold
same,MF (mean fold increase in median fluorescence over control antibody),[17],7 fold
same,MF (mean fold increase in median fluorescence over control antibody),[18],19.6 fold
same,MF (mean fold increase in median fluorescence over control antibody),[19],14.8 fold
same,MF (mean fold increase in median fluorescence over control antibody),[20],22.7 fold
same,MF (mean fold increase in median fluorescence over control antibody),[21],9.6 fold
same,MF (mean fold increase in median fluorescence over control antibody),[22],7.6 fold
same,MF (mean fold increase in median fluorescence over control antibody),[23],29.9 fold
same,Fold-increase in MF,[24],129 fold
same,Fold-increase in MF,[25],49.2 fold
same,Fold-increase in MF,[26],39.3 fold
same,IC50,[27],180 µg/mL
